Measured values published in patent US7994123B2, “Hybrid proteins with ErbB4 extracellular domain and neuregulin heparin-binding domain for targeting” (Wayne State University, priority 2004, dated 2011).

B1: NRG: recombinant neuregulin β1 IG-EGF form provided by Amgen (protein)
chain: KKKERGSGKKPESAAGSQSPALPPRLKEMKSQESAAGSKLVLRCETSSEYSSLRFKWFKNGNELNRKNKPQNIKIQKKPGKSELRINKASLADSGEYMCKVISKLGNDSASANITIVESNEIITGMPASTEGAYVSSESPIRISVSTEGANTSSSTSTSTTGTSHLVKCAEKEKTFCVNGGECFMVKDLSNPSRYLCKCQPGFTGARCTENVPMKVQNQEKAEELYQKRVLTITGICIALLVVGIMCVVAYCKTKKQRKKLHD
B2: GlyB4: purified HBD-S-B4 fusion with HIS tag instead of HA tag (protein)
chain: QSGYKKKERGSGKKPESAAGSQSPALPPRLKEMKSQESAAGSKLVLRCETSSEYSSLRFKWFKPNGNELNRKNKQNIKIQKKPGKSELRINKASLADSGEYMCKVISKLGNDSASANITIVESNEIITGMPASTEGAYVSSESPIRISVSTEGANTSSSTSTSTTGTSGTQSVCAGTENKLSSLSDLEQQYRALRKYYENCEVVMGNLEITSIEHNRDLSFLRSVREVTGYVLVALNQFRYLPLENLRIIRGTKLYEDRYALAIFLNYRKDGNFGLQELGLKNLTEILNGGVYVDQNKFLCYADTIHWQDIVRNPWPSNLTLVSTNGSSGCGRCHKSCTGRCWGPTENHCQTLTRTVCAEQCDGRCYGPYVSDCCHRECAGGCSGPKDTDCFACMNFNDSGACVTQCPQTFVYNPTTFQLEHNFNAKYTYGAFCVKKCPHNFVVDSSSCVRACPSSKMEVEENGIKMCKPCTDICPKACDGIGTGSLMSAQTVDSSNIDKFINCTKINGNLIFLVTGIHGDPYNAIEAIDPEKLNVFRTVREITGFLNIQSWPPNMTDFSVFSNLVTIGGRVLYSGLSLLILKQQGITSLQFQSLKEISAGNIYITDNSNLCYYHTINWTTLFSTINQRIVIRDNRKAENCTAEGMVCNHLCSSDGCWGPGPDQCLSCRRFSRGRICIESCNLYDGEFREFENGSICVECDPQCEKMEDGLLTCHGPGPDNCTKCSHFKDGPNCVEKCPDGLQGANSFIFKYADPDRECHPCHPNCTQGCNGPTSHDCIYYPWTGHSTLPQHAKN
modifications: left off: small tags and cut ends

What was measured:
[1] = test system: MCF10CA1 human breast cancer cells; test: Cell proliferation assay, MCF10CA1; assay type: cell-based
Experimental: (§1) Cell proliferation assays: All three breast epithelial cell lines were plated at 5000 cells/well in 48 well plates in regular MCF10A/AT or MCF10CA1 media. After incubation for 3 days, 1 nM NRG in MCF10A/AT media or just MCF10A/AT media alone were applied to the cells for another 24 hours followed by washing them with culture media and then counting cell numbers using an hemocytometer on the 4th, 5th, 6th, 7th and 8th day.
(§2) After 2 days, the Optimem I conditioned media was concentrated by Centricon at 4° C. 40 μl of IgB4 conditioned media or 10 μM of tyrosine kinase inhibitor AG1478 were combined with […] 1 nM NRG in MCF10A/AT media for 15 min at room temperature before being added to MCF10CA1 cells for 30 min treatment. […] The amount of each antagonist was determined empirically based on its ability to block NRG-induced activation of L6 cells.

[2] = test system: erbB receptor phosphorylation (p185) in MCF10CA1 cells; test: p185 receptor phosphorylation western blot, MCF10CA1; assay type: cell-based, human; conditions: exogenous NRG, 30 min; above high basal levels
Experimental: (§3) Western blots and L6 muscle assays: P185 receptor phosphorylation of the three cell lines was measured by phosphotyrosine western blots after NRG treatment for 30 min on 3 day old cultures as described in WO 03/012045 and Li Q & Loeb J A (2001) J Biol Chem; 276:38068-75. […] The media was discarded and phosphotyrosine western blots were performed as above. The membranes were stripped and reprobed with polyclonal rabbit erbB2 for the detection of overall erbB2 protein that was used for quantitation.
as §2

[3] = test system: MCF10A cells; test: Cell proliferation assay, MCF10A; assay type: cell-based, human; conditions: 1 nM NRG for 24 hours, three days after plating
Experimental: as §1

[4] = test system: MCF10AT cells; test: Cell proliferation assay, MCF10AT; assay type: cell-based, human; conditions: 1 nM NRG for 24 hours, three days after plating
Experimental: as §1

[5] = test system: erbB receptor phosphorylation (p185) in MCF10A cells; test: p185 receptor phosphorylation western blot, MCF10A; assay type: cell-based, human; conditions: exogenous NRG, 30 min
Experimental: as §3

[6] = test system: erbB receptor phosphorylation (p185) in MCF10AT cells; test: p185 receptor phosphorylation western blot, MCF10AT; assay type: cell-based, human; conditions: exogenous NRG, 30 min
Experimental: as §3

[7] = test system: eight NRG-response proliferation genes in MCF10A cells; test: Northern blot of proliferation genes, MCF10A; assay type: cell-based, human; conditions: 1 nM NRG for 24 hours
Experimental: (§4) RNA preparation and Northern blotting: MCF10A, MCF10AT and MCFCA1 cells were cultured in 25 cm flasks to approximately 60% confluence. The cells were treated with 1 nM NRG in MCF10A/AT media for 24 hours. The cells were then washed with phosphate buffered saline (PBS) once and harvested. Total RNA was extracted from cells using Ultraspec (Biotecx Laboratories, Inc.), “cleaned up” by Rneasy® purification kit (Qiagen, Valencia, Calif.), and subsequently to quantified using a fluorescent dye binding method called Ribogreen (Molecular Probes, Eugene, Oreg.). Northern blots were performed as described previously (Li & Loeb, supra) on RNA extracted from the 3 breast epithelial cell lines after NRG treatment in MCF10A/AT media verses control MCF10A/AT media. Probes were generated by PCR and then prepared by random priming to full-length cDNA clones from the clones provided by Alphagene Inc as described. The membranes were reprobed with a ^32P-labeled GAPDH probe for normalization.

[8] = test system: eight NRG-response proliferation genes in MCF10AT cells; test: Northern blot of proliferation genes, MCF10AT; assay type: cell-based, human; conditions: 1 nM NRG for 24 hours
Experimental: as §4

[9] = test system: eight NRG-response proliferation genes in MCF10CA1 cells; test: Northern blot of proliferation genes, MCF10CA1; assay type: cell-based, human; conditions: 1 nM NRG for 24 hours
Experimental: as §4

[10] = Heparin column binding; conditions: conditioned media; anti-HA western blot of flow through and elution
Experimental: (§5) 4. Cell culture: The L6 cells were cultured in DMEM supplemented with 10% fetal calf serum, 1 mM L-glutamine and 1000 U/ml penicillin/streptomycin at 37° C. in 10% CO2 incubator. The HEK293 cells were cultured in DMEM with 10% fetal calf serum, 1 mM L-glutamine, 2 mM sodium pyruvate, 0.1 mM non-essential amino acids, 1000 U/ml penicillin/streptomycin at 37° C. in 10% CO2 incubator. The selective antibiotics Geneticin 200 μg/ml (Gibco-Invitrogen) was added to the cell cultures of stably transfected HEK293 cells harboring the NRG antagonists. 5. Stable expression of NRG antagonists in HEK293 cells: HEK293 cells were cultured in […] flasks to 80% confluence and transfected with the four NRG antagonist constructs using lipofectamine 2000 (Invitrogen Life Science) as instructed. The antibiotic Geneticin was then added at a concentration of 400 μg/ml to the transfected HEK293 cells to select the positive antagonist transfected cells. After three weeks of Geneticin selection, the transfected HEK293 cells were diluted and plated in 96 well plates to yield single positive clones. The single clones that expressed the highest levels of antagonists (confirmed by western blot using HA antibody) were then maintained in culture media with 200 μg/ml Geneticin. Optimem I (Gibco-Invitrogen) was applied to the stably transfected NRG antagonist cell lines at 37° C. in 10% CO2 incubator for 2 days. The conditioned Optimem I media was then used in the following experiments. 6. Heparin column binding: The conditioned media containing the four NRG antagonists was passed through the heparin column to allow binding to heparin. The excessive unbound antagonist proteins were washed off by 1×PBS twice. The antagonist proteins were then eluted by increasing concentration of NaCl (0.25, 0.3, 0.4, 0.5, 0.6 and 1M). The flow through solution from each step was examined by anti-HA western blots, as described later, to determine heparin binding ability of the antagonists. 7. Purification and quantitation of recombinant proteins: The NRG antagonists were purified by anti-HA affinity matrix (3F10) (rat mAb) according to manufacturer's instructions. Briefly, the column was equilibrated with buffer containing 20 mM Tris pH 7.5, 0.1 M NaCl, 0.1 M EDTA, and each antagonist in conditioned medium was applied individually to the anti-HA affinity matrix. Excess unbound antagonist proteins were washed with 20 volume of washing buffer (20 mM Tris pH 7.5, 0.1 M NaCl, 0.1 M EDTA and 0.05% Tween 20). The bound NRG antagonists were eluted with 0.1 M glycine (pH 2). The purified recombinant protein was then quantified using a BioRad Protein Assay kit (Bio-Rad, Hercules, Calif.) 8. Silver stain: Both the conditioned media and the purified NRG antagonists were resolved on 7.5% reducing SDS-polyacrylamide gels. The gel was fixed with 30% ethanol and 10% acetic acid for 30 min. 10% ethanol and ultrapure water were used subsequently to wash the gel before staining with SilverSNAP stain solution with enhancer for 30 min. The gel was then developed using SilverSNAP developer solution with enhancer. 5% acetic acid was used to stop the reaction when the desired band intensity was reached. The gel was dried on filter paper using a vacuum gel dyer. 9. […] Positive control L6 cells were treated with 50 pM NRG alone. L6 cell lysates were prepared and run on 5% SDS-PAGE gel. Western blots of erbB receptor phosphorylation were performed using 4G10 antibody. 10. Western blot: Western blots were performed on both conditioned NRG antagonist media and the antagonist-treated L6 cells. The antagonist proteins and the L6 cells were solubilized in SDS sample buffer and boiled for 5 min as described above (see also Li et al., supra). The NRG antagonists run on 7.5% SDS-PAGE gel were detected by anti-HA mAb HA.11. Phosphotyrosine mAb 4G10 was used to detect phosphorylated erbB receptor (p185) in L6 cell western blot analysis following resolution on overrun 5% reducing SDS-polyacrylamide gels. […]

[11] = test system: erbB receptor phosphorylation (p185) in L6 cells; test: L6 assay: block of NRG-induced erbB receptor phosphorylation (p185); assay type: cell-based; conditions: preincubated with L6 muscle cells one hour, thoroughly washed before adding recombinant neuregulin
Experimental: as §5

[12] = test system: Mat BIII rat breast cancer cells; test: Rat syngeneic breast cancer spontaneous metastasis model; assay type: in vivo; conditions: female Fisher rats, 14-day osmotic mini-pump, about 4 mg/kg/day
Experimental: The rat syngeneic breast cancer system (Xing et al., Int. J. Cancer 67:423-429 (1996) employs Mat BIII rat breast cancer cells. Tumor cells, for example about 10^6 in 0.1 ml PBS, are inoculated into the mammary fat pads of female Fisher rats. At the time of inoculation, a 14-day Alza osmotic mini-pump is implanted intraperitoneally to dispense the test compound. The compound is dissolved in PBS (e.g., 200 mM stock), sterile filtered and placed in the minipump to achieve a release rate of about 4 mg/kg/day. Control animals receive vehicle (PBS) alone or a vehicle control peptide in the minipump. Animals are sacrificed at about day 14. In the rats treated with the active compounds of the present invention, significant reductions in the size of the primary tumor and in the number of metastases in the spleen, lungs, liver, kidney and lymph nodes (enumerated as discrete foci) are observed. Histological and immunohistochemical analysis reveal increased necrosis and signs of apoptosis in tumors in treated animals. Large necrotic areas are seen in tumor regions lacking neovascularization. […] In contrast, treatment with control polypeptides fails to cause a significant change in tumor size or metastasis.

binding to heparin column [10]	Molecule	effect on growth rate of MCF10CA1 cells ([1]; 1 nM NRG for 24 hours, three days after plating)	induction of erbB receptor phosphorylation (p185), MCF10CA1 [2]	effect on growth rate of MCF10A cells [3]	effect on growth rate of MCF10AT cells [4]	induction of erbB receptor phosphorylation (p185), MCF10A [5]	induction of erbB receptor phosphorylation (p185), MCF10AT [6]	regulation of 8 NRG-response genes, MCF10A [7]	regulation of 8 NRG-response genes, MCF10AT [8]	regulation of 8 NRG-response genes, MCF10CA1 [9]	sustained blockade of neuregulin signaling (p185 phosphorylation) [11]	effectiveness at blocking proliferation compared with Herceptin ([1]; 1 nM GlyB4 versus Herceptin 100 μg/ml)	blocking of cancer cell growth ([1]; 1 nM, treated on days 0, 3 and 6, compared to control cells or cells treated with B4)	potency relative to control polypeptides [12]
	B1	increased the initial growth rate	only a small incremental amount of phosphorylation	sustained reduction in the growth rate	only a small, initial reduction in growth rate	induced strong erbB receptor phosphorylation	induced strong erbB receptor phosphorylation	rapid down-regulation of all 8 of these genes	rapid down-regulation of all 8 of these genes	very little down-regulation of only a few of these genes				
binds to heparin	B2										complete and sustained blockade of neuregulin signaling	comparably, if not slightly more, effective	significantly more potent at blocking cancer cell growth	at least two-fold more potent than the relevant control polypeptides
